# According to the supplement of paper PMC10065799, “High-throughput profiling of sequence recognition by tyrosine kinases and SH2 domains using bacterial peptide display” (eLife, 2023):
# What was measured:
# EPHB2 = EPHB2 (UniProt P29323); assay: phosphorylation enrichment, bacterial display (enrichment ratio); higher = better substrate or ligand; peptides without Tyr show the background
# FGFR1 = FGFR1 (UniProt P11362); assay: as above
# FGFR3 = FGFR3 (UniProt P22607); assay: as above
# AncSZ = assay: as above
# Hck = Hck (UniProt P08631); assay: as above
# Chain of Hck (P08631 whole entry, looked up): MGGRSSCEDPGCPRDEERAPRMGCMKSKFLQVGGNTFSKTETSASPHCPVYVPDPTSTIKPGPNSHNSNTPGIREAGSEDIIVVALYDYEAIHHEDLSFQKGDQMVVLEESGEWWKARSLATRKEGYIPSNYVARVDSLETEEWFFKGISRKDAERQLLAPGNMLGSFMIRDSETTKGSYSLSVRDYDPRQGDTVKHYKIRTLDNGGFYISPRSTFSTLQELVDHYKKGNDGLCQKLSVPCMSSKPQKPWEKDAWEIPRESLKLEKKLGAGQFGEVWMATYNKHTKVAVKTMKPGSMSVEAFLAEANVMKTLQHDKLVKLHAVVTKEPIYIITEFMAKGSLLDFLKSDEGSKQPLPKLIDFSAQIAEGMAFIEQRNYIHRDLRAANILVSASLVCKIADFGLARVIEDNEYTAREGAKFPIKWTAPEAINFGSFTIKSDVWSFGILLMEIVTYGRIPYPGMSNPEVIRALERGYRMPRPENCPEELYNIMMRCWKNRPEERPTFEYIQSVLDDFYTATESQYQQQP
# EPHB1 = EPHB1 (UniProt P54762); assay: as above
# Chain of EPHB1 (P54762 whole entry, looked up): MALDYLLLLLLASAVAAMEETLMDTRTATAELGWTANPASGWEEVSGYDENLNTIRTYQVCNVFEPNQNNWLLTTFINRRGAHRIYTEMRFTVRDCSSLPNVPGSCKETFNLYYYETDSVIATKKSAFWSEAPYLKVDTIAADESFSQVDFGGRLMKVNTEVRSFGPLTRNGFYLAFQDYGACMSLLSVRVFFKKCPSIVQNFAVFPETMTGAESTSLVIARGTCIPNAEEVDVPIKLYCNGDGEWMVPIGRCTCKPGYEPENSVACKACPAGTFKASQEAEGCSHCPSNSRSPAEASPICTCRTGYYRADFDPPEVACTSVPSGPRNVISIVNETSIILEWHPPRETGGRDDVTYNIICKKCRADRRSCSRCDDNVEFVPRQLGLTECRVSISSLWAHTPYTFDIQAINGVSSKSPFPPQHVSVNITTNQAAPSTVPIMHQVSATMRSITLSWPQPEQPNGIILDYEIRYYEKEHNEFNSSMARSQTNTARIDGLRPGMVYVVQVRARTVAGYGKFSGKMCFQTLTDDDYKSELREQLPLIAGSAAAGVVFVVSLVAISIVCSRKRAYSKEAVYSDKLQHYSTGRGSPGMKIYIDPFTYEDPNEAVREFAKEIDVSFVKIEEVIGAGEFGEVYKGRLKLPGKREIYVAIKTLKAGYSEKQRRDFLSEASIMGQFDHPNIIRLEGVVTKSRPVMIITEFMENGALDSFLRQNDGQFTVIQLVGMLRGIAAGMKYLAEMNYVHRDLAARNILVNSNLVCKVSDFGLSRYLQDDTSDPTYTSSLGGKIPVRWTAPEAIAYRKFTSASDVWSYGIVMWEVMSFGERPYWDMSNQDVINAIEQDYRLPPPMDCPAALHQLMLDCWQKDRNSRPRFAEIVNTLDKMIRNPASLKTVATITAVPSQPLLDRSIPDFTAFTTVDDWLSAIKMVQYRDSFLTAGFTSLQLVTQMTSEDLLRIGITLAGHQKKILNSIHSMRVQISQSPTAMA
# Jak2 = Jak2 (UniProt O60674); assay: as above
# Fer (mouse) = assay: as above
# MERTK = MERTK (UniProt Q12866); assay: as above
# c-Src = assay: as above
# Fes = Fes (UniProt P07332); assay: as above
# Fyn = Fyn (UniProt P06241); assay: as above
# Chain of Fyn (P06241 whole entry, looked up): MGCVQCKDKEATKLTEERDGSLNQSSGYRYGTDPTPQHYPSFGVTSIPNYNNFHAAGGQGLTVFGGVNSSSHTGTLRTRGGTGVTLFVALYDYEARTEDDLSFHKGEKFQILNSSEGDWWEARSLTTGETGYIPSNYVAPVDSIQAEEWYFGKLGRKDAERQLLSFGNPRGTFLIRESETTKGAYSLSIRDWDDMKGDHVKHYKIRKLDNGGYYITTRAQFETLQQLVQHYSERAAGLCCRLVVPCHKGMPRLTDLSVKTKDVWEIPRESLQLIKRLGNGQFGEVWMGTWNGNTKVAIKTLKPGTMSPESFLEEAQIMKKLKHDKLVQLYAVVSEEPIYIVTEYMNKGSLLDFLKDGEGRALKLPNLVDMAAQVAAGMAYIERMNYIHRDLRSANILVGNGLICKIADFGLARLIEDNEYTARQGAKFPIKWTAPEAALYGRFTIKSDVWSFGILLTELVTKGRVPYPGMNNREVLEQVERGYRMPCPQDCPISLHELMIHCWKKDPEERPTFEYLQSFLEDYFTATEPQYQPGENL
# c-Abl (mouse) = assay: as above
# SHP2-C SH2 = assay: SH2 binding enrichment of the phosphorylated peptide, bacterial display (enrichment ratio); higher = better substrate or ligand; peptides without Tyr show the background
# Grb2 SH2 = Grb2 SH2 (UniProt P62993); assay: as above
# Chain of Grb2 SH2 (P62993 whole entry, looked up): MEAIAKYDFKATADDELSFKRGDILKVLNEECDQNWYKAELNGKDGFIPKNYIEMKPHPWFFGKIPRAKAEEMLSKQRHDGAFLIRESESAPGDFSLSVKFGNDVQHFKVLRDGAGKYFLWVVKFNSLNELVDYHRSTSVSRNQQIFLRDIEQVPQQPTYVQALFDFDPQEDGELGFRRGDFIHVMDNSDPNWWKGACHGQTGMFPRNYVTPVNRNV
# c-Src SH2 = assay: as above
# 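Throughout, for SH2 binding enrichment of the phosphorylated peptide, bacterial display: peptide library displayed on the E. coli surface as eCPX fusions, selected cells deep-sequenced, score is each peptide's frequency after selection divided by its frequency in the input.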
# 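Throughout, for phosphorylation enrichment, bacterial display: 11-residue human phosphosite peptides and single-mutation variants displayed on the E. coli surface, counted by deep sequencing, each peptide's frequency after selection divided by its frequency in the unselected input library; frequency after pTyr selection over input frequency; kinase dosed for 20-30% of maximal phosphorylation in three min.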
# Chain of FGFR3 (P22607 whole entry, looked up): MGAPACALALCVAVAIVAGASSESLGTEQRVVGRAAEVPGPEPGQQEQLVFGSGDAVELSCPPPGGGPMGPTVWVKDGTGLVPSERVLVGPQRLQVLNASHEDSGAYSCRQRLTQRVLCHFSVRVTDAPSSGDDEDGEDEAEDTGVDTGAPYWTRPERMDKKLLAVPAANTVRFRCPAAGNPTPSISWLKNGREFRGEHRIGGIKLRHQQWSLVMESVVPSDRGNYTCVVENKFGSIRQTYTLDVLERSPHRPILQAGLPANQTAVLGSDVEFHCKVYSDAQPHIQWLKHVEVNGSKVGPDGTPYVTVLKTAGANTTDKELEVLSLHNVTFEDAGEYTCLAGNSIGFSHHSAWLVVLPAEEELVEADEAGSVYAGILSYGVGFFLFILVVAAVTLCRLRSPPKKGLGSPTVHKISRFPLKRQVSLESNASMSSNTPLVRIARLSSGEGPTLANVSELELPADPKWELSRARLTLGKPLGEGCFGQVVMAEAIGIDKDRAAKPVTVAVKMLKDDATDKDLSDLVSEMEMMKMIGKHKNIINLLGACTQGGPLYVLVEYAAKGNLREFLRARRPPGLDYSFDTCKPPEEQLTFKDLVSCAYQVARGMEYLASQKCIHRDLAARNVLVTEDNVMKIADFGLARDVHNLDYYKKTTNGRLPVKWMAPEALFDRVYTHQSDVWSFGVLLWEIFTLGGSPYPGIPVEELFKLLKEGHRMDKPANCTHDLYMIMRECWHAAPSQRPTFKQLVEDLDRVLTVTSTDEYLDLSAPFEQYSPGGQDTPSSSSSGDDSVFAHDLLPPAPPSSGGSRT
# Chain of EPHB2 (P29323 whole entry, looked up): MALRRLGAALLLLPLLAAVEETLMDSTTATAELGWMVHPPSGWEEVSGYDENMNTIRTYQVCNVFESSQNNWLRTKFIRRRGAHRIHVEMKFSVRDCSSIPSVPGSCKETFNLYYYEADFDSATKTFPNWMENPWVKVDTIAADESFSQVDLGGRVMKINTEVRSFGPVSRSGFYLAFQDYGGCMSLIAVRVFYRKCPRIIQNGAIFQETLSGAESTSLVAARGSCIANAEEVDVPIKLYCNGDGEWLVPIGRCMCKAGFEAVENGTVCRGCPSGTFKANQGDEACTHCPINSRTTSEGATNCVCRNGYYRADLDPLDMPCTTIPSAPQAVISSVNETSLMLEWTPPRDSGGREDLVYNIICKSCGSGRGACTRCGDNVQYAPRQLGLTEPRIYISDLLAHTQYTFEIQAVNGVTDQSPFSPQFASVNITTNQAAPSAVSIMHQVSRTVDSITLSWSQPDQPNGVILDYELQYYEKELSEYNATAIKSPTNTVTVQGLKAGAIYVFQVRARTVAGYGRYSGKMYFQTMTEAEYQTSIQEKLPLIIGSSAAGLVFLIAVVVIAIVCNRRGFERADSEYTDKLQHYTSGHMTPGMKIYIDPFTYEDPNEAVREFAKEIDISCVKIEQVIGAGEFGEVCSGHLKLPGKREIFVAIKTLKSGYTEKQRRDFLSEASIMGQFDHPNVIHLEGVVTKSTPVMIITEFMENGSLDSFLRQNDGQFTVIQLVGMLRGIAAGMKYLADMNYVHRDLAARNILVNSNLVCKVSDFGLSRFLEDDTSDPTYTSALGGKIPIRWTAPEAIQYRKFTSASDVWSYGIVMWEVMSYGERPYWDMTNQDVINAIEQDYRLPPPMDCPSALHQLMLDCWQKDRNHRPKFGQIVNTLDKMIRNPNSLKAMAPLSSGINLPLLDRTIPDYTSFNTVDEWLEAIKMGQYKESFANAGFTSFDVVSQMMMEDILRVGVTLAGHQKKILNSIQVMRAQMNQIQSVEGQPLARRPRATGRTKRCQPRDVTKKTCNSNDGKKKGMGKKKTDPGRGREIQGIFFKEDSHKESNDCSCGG
# Chain of FGFR1 (P11362 whole entry, looked up): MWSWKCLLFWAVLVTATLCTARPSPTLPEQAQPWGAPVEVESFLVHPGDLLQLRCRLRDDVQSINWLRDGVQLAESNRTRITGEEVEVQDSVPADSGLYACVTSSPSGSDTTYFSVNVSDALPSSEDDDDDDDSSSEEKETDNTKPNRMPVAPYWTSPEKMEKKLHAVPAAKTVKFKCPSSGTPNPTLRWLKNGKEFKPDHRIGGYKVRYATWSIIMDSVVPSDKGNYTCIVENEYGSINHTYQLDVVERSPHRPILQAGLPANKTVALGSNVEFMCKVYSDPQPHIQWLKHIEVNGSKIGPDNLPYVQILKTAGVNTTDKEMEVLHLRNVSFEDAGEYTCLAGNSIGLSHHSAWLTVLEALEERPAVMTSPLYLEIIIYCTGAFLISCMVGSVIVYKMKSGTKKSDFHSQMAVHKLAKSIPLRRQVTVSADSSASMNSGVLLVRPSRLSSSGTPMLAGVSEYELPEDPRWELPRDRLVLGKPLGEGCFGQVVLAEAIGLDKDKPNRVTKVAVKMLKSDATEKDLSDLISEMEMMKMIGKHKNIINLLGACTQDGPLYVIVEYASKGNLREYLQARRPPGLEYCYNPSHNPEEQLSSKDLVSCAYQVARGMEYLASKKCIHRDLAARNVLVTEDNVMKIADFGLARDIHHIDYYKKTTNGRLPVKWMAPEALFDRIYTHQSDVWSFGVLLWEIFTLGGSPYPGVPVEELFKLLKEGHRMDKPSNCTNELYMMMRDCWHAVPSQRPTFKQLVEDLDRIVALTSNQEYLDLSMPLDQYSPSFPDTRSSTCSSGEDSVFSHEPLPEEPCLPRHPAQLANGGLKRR
Sequence,phosphorylation enrichment (EPHB2),phosphorylation enrichment (FGFR1),phosphorylation enrichment (FGFR3),phosphorylation enrichment (AncSZ),phosphorylation enrichment (Hck),phosphorylation enrichment (EPHB1),phosphorylation enrichment (Jak2),phosphorylation enrichment (Fer (mouse)),phosphorylation enrichment (MERTK),phosphorylation enrichment (c-Src),phosphorylation enrichment (Fes),phosphorylation enrichment (Fyn),phosphorylation enrichment (c-Abl (mouse)),SH2 binding enrichment (SHP2-C SH2),SH2 binding enrichment (Grb2 SH2),SH2 binding enrichment (c-Src SH2)
EIVYVYVKKRS [DNAI2_Y7],0.57,0.52,0.675,1.29,0.538,0.555,1.01,0.465,0.377,0.399,1.1,0.354,0.64,0.805,0.687,0.483
EKEKKYMLPLD [DNM2_Y563],0.473,0.412,0.466,0.885,0.591,0.526,0.849,0.489,0.449,0.452,0.796,0.625,0.589,0.841,0.902,0.534
EKEQNYDLTEV [ECD_Y448],0.675,0.655,0.73,1.31,0.666,0.569,1.06,0.694,0.593,0.466,1.31,0.544,0.737,0.802,0.962,0.704
EKKDIYKAGEQ [CFH_Y1008_V1007I],0.424,0.327,0.364,0.493,0.373,0.353,0.488,0.362,0.362,0.431,0.696,0.341,0.5,0.648,0.826,0.365
EKLQQYLAPGM [EPHB3_Y600_I601L],0.489,0.466,0.493,0.68,0.48,0.408,0.57,0.54,0.487,0.347,0.863,0.398,0.732,0.559,0.745,0.564
EKQARYEIVVE [CDH5_Y223],0.57,0.392,0.532,0.909,0.486,0.65,0.846,0.466,0.484,0.477,0.852,0.433,0.613,0.666,0.856,11
EKSREYDRLYE [PIK3R1_Y463],0.68,0.61,0.706,1.32,0.944,0.663,0.828,0.711,0.597,0.587,1.09,0.708,0.938,0.612,0.966,16.9
ELPEKYSQNIF [PKP2_Y626_YF],0.492,0.579,0.659,0.989,0.507,0.528,1.09,0.423,0.538,0.539,1.05,0.413,0.605,0.711,0.864,0.614
ELTSKYRGGGG [HBA1_Y141_V136E],0.385,0.333,0.411,0.515,0.422,0.412,0.678,0.313,0.503,0.434,0.573,0.353,0.471,0.725,0.939,0.469
EMFNPYYGLFE [NEDD4L_Y679],5.92,5.41,4.84,2.04,7.91,5.74,6.66,6.32,6.86,6.95,1.64,8.62,2.2,0.855,1.17,1.06
EMTAEYACTRK [ACAD9_Y325],0.492,0.397,0.551,0.703,0.627,0.406,0.499,0.497,0.457,0.412,0.706,0.434,0.603,1.03,1.22,0.692
ENFDDYMKEVG [FABP4_Y20],0.623,0.569,0.699,1.23,0.527,0.579,1.06,0.687,0.396,0.539,1.22,0.496,0.707,0.791,1.04,0.802
ENFSEYQEIAV [HEMGN_Y150],1.24,1.59,1.38,1.51,0.984,2.29,1.28,1.4,0.507,0.616,1.24,0.586,0.957,0.663,0.98,0.627
ENFSEYQEISV [HEMGN_Y150_A154S],1.46,1.89,1.53,1.59,0.987,2.45,1.14,1.42,0.659,0.873,1.39,0.594,0.965,0.749,0.827,0.617
EPYKVYRIVPE [IRF8_Y110],0.54,0.521,0.612,0.746,0.574,0.474,0.658,0.447,0.462,0.605,0.728,0.641,0.473,0.646,0.762,0.598
EQLQSYQAEII [KRT33A_Y268],0.571,0.54,0.821,1.12,0.518,0.524,1.15,0.526,0.45,0.555,1.16,0.516,0.988,0.683,0.708,0.472
EQQNMYRLKVL [ABCC6_Y372],0.5,0.521,0.545,0.861,0.475,0.56,0.561,0.488,0.401,0.452,0.706,0.41,0.619,0.566,0.79,0.499

Sequence,phosphorylation enrichment (EPHB2),phosphorylation enrichment (FGFR1),phosphorylation enrichment (FGFR3),phosphorylation enrichment (AncSZ),phosphorylation enrichment (Hck),phosphorylation enrichment (EPHB1),phosphorylation enrichment (Jak2),phosphorylation enrichment (Fer (mouse)),phosphorylation enrichment (MERTK),phosphorylation enrichment (c-Src),phosphorylation enrichment (Fes),phosphorylation enrichment (Fyn),phosphorylation enrichment (c-Abl (mouse)),SH2 binding enrichment (SHP2-C SH2),SH2 binding enrichment (Grb2 SH2),SH2 binding enrichment (c-Src SH2)
ERDYTYDELLN [EIF2S2_Y176_E177D],0.682,0.558,0.791,1.17,1.04,0.742,1.21,0.506,0.498,0.661,1.27,0.631,0.887,0.688,0.786,1.83
ESAAIYNPVIF [RHO_Y301_K296E_YF],0.579,0.673,0.675,1.03,9.56,0.452,0.707,17.2,4.16,6.99,1.25,8.03,1.28,0.678,0.848,0.493
ESSKAYERALS [TTC37_Y1074],0.624,0.423,0.476,0.77,0.444,0.413,0.594,0.418,0.417,0.409,0.816,0.412,0.618,0.571,0.787,0.468
ETKEDYEKILV [ANXA1_Y335_G333E],0.598,0.509,0.743,1.09,0.572,0.616,1.01,0.598,0.53,0.484,1.23,0.501,0.779,0.905,0.972,0.594
ETKKQYNSFTF [TMED3_Y85_D86N_YF],0.475,0.366,0.454,0.64,0.417,0.442,0.719,0.513,0.396,0.399,0.711,0.432,0.561,0.636,0.65,0.411
ETKTPYTVILI [SBDS_Y128_R126T],0.637,0.592,0.794,0.999,0.569,0.543,0.961,1.06,0.534,0.485,1.22,0.483,0.651,2.27,0.671,0.54
EVASVYESYQP [MAVS_Y92_Q93E],1.61,0.527,0.737,1.83,6.67,0.948,0.849,10.1,0.71,5.67,1.11,8.41,0.783,0.504,0.919,0.727
EVEPRYVVLFD [ERCC4_Y577_YF],3.06,0.999,0.973,1.18,0.505,3.47,1.11,0.568,4.21,0.667,1.04,0.547,0.777,1.33,0.802,3.48
EVEPRYVVLYD [ERCC4_Y577],3.44,1.36,0.986,1.22,0.646,3.5,1.07,0.547,5.22,0.683,1.13,0.664,0.91,1.84,0.894,8.72
EVLKNYNQQKD [GOLGA4_Y1551],0.505,0.565,0.702,0.949,0.452,0.504,0.969,0.552,0.439,0.388,1.07,0.443,0.717,0.669,0.608,0.32
EVVGGYSVHNA [MLH1_Y183_R182G],0.314,0.339,0.599,0.528,0.44,0.306,0.504,0.372,0.369,0.336,0.729,0.324,0.643,0.537,0.951,0.437
EWCSPYGLTPR [GRIN3B_Y601_R598C],0.569,0.474,0.613,0.815,1.04,0.556,0.778,1.2,1.01,3.91,1.02,1.76,0.734,0.629,0.644,0.535
EYKDAYTFAAD [BRDT_Y335_K336T],0.595,0.511,0.74,1.15,0.548,0.553,1.11,0.555,0.51,1.29,1.09,0.833,0.556,0.727,0.876,0.61
FADIAYNYRHR [PAH_Y166_G171R],0.44,0.427,0.435,0.624,0.341,0.391,0.533,0.436,0.398,0.429,0.687,0.27,0.511,0.773,0.866,0.542
FADIAYSYRHG [PAH_Y166_N167S],0.418,0.562,0.508,0.726,0.568,0.423,0.727,0.453,0.46,0.714,0.658,0.512,0.63,0.784,0.822,0.496
FAFQLYDLDPD [CHP2_Y123_R127P_YF],0.698,0.568,0.907,1.26,1.8,0.981,1.25,0.62,0.571,3.52,1.26,2.84,1.05,0.999,1.02,0.982
